Our source for the protein stability index values is the supplement of paper PMC10567573.

B1: BTBD1 (parent)
chain: TSAEIELPDVEPAAFLALLRFLYS
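Note: lentivirally expressed fusions sorted by FACS into six bins by GFP to DsRed ratio, PSI derived from sequencing read proportions per bin multiplied by bin number.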

In the series the parent is B1. In words: protein stability index of a GFP-peptide fusion (GPS, HEK-293T) (PSI 1-6); higher = more stable. The settings on record: c terminus: a fixed tail appended.
In the case of TSFEIELPDVEPAAFLALLRFLYS [A3F], the protein stability index worked out at 1.58.

In the case of TSGEIELPDVEPAAFLALLRFLYS [A3G], the protein stability index amounted to 2.66.

Regarding TSTEIELPDVEPAAFLALLRFLYS [A3T], the protein stability index stood at 1.99.

As for TSAEIELPDVEPAAFLALLRFQYS [L22Q], the protein stability index came to 1.5.

Regarding TSAEIELPDVEPAAFLALLRFHYS [L22H], the protein stability index was 1.96.

Regarding TSAEIELPDVEPAAFLALLRFYYS [L22Y], the protein stability index was 1.83.

As for TSAEIELPDVEPAAFLALLRFDYS [L22D], the protein stability index amounted to 1.87.

For TSAEIELPDVEPAAFLALLRFGYS [L22G], the protein stability index came to 1.72.

TSAEIELPDVEPAAFLALLRFEYS [L22E]: the protein stability index was found to be 2.07.

In the case of TSAEIELPDVEPAAFLALLRFFYS [L22F], the protein stability index was found to be 2.61.

In the case of TSAEIELPDVEPAAFLALLRFTYS [L22T], the protein stability index worked out at 1.98.

On to TSAEIELPDVEPAAFLALLRFVYS [L22V], for which the protein stability index came to 2.15.

Turning to TSAEIELPDVEPAAWLALLRFLYS [F15W], the protein stability index was determined as 2.89.

Regarding TSAEIELPDVEPAADLALLRFLYS [F15D], the protein stability index was 2.73.

TSAEIELPDVEPAAILALLRFLYS [F15I]: the protein stability index is 1.95.

Consider TSAEIELPDVEPAAVLALLRFLYS [F15V], for which the protein stability index was found to be 1.75.

With TSAEIELPDVEPAAALALLRFLYS [F15A], the protein stability index amounted to 1.69.

TSAEIPLPDVEPAAFLALLRFLYS [E6P]: the protein stability index worked out at 2.31.

Turning to TSAEIFLPDVEPAAFLALLRFLYS [E6F], the protein stability index turned out to be 1.64.

As for TSAEIRLPDVEPAAFLALLRFLYS [E6R], the protein stability index turned out to be 1.84.

For TSAEICLPDVEPAAFLALLRFLYS [E6C], the protein stability index was 2.3.

Consider TSAEIHLPDVEPAAFLALLRFLYS [E6H], for which the protein stability index came out at 1.78.

For TSAEITLPDVEPAAFLALLRFLYS [E6T], the protein stability index is 2.1.

For the variant TSAEIELFDVEPAAFLALLRFLYS [P8F], the protein stability index is 2.23.

Consider TSAEIELADVEPAAFLALLRFLYS [P8A], for which the protein stability index turned out to be 1.97.

In the case of TSAEIELTDVEPAAFLALLRFLYS [P8T], the protein stability index was 1.74.

Regarding TSAEIELKDVEPAAFLALLRFLYS [P8K], the protein stability index is 1.46.

Regarding TSAEIELQDVEPAAFLALLRFLYS [P8Q], the protein stability index was 1.76.

For the variant TSAEIELIDVEPAAFLALLRFLYS [P8I], the protein stability index was found to be 1.62.

In the case of TSAEIELHDVEPAAFLALLRFLYS [P8H], the protein stability index turned out to be 1.63.

For the variant TSAEIELCDVEPAAFLALLRFLYS [P8C], the protein stability index came out at 1.49.

On to TSAEIELVDVEPAAFLALLRFLYS [P8V], for which the protein stability index was determined as 2.48.

Consider TSAEIELLDVEPAAFLALLRFLYS [P8L], for which the protein stability index amounted to 1.26.

For GSAEIELPDVEPAAFLALLRFLYS [T1G], the protein stability index was found to be 2.56.

Take YSAEIELPDVEPAAFLALLRFLYS [T1Y]: the protein stability index came out at 1.97.

Regarding ESAEIELPDVEPAAFLALLRFLYS [T1E], the protein stability index was determined as 1.66.

Regarding ISAEIELPDVEPAAFLALLRFLYS [T1I], the protein stability index worked out at 1.65.

Take DSAEIELPDVEPAAFLALLRFLYS [T1D]: the protein stability index is 2.4.

For the variant HSAEIELPDVEPAAFLALLRFLYS [T1H], the protein stability index worked out at 2.15.

For SSAEIELPDVEPAAFLALLRFLYS [T1S], the protein stability index is 1.65.

For TSAEIELPDVEPAAFLALLRRLYS [F21R], the protein stability index is 2.25.

With TSAEIELPDVEPAAFLALLRALYS [F21A], the protein stability index stood at 2.21.

For TSAEIELPDVEPAAFLALLRDLYS [F21D], the protein stability index is 1.85.

Turning to TSAEIELPDVEPAAFLALLRTLYS [F21T], the protein stability index was 1.89.

Take TSAEIELPDVEPAAFLALMRFLYS [L19M]: the protein stability index is 2.05.

As to TSAEIELPDVEPAAFLALERFLYS [L19E], the protein stability index worked out at 2.31.

For TSAEIELPDVEPAAFLALNRFLYS [L19N], the protein stability index stood at 1.77.

As to TSAEIELPDVEPAAFLALRRFLYS [L19R], the protein stability index was determined as 1.84.

On to TSAEIELPDVEPAAFLALWRFLYS [L19W], for which the protein stability index was determined as 1.98.

As to TSAEIELPDVEPAAFLALIRFLYS [L19I], the protein stability index was 2.37.

As to TSAEIELPDVEPAAFLALCRFLYS [L19C], the protein stability index was found to be 1.94.

For TSAEIELPDVEPAAFLALTRFLYS [L19T], the protein stability index came to 1.76.

As for TSAEIELPFVEPAAFLALLRFLYS [D9F], the protein stability index amounted to 2.23.

With TSAEIELPLVEPAAFLALLRFLYS [D9L], the protein stability index came out at 1.63.

Turning to TSAEIELPWVEPAAFLALLRFLYS [D9W], the protein stability index was 2.12.

TSAEIELPYVEPAAFLALLRFLYS [D9Y]: the protein stability index amounted to 1.33.

Consider TSAEIELPGVEPAAFLALLRFLYS [D9G], for which the protein stability index came to 1.92.

TSAEIELPEVEPAAFLALLRFLYS [D9E]: the protein stability index amounted to 2.19.

For the variant TSAEIELPKVEPAAFLALLRFLYS [D9K], the protein stability index turned out to be 1.98.

As to TSAEIELPSVEPAAFLALLRFLYS [D9S], the protein stability index stood at 2.12.

As to TSAEIELPQVEPAAFLALLRFLYS [D9Q], the protein stability index was 2.45.

Turning to TSAEIELPVVEPAAFLALLRFLYS [D9V], the protein stability index amounted to 1.95.

On to TSAEIELPDVEPAAFLALLRFLYI [S24I], for which the protein stability index stood at 2.32.

As for TSAEIELPDVEPAAFLALLRFLYM [S24M], the protein stability index came to 2.37.

With TSAEIELPDVEPAAFLALLRFLYY [S24Y], the protein stability index came to 1.94.

As to TSAEIELPDVEPAAFLALLRFLYF [S24F], the protein stability index stood at 2.33.

As to TSAEIELPDVEPAAFLALLRFLYK [S24K], the protein stability index is 1.52.

In the case of TSAEIELPDVEPAAFLALLRFLYQ [S24Q], the protein stability index amounted to 2.33.

Take TSAEIELPDVEPAAFLALLKFLYS [R20K]: the protein stability index was 1.29.

Take TSAEIELPDVEPAAFLALLQFLYS [R20Q]: the protein stability index was determined as 2.05.

Take TSAEIELPDVEPAAFLALLLFLYS [R20L]: the protein stability index came to 3.18.

For the variant TSAEIELPDVEPAAFLALLSFLYS [R20S], the protein stability index was found to be 1.93.

For the variant TSAEIELPDVEPAAFLALLNFLYS [R20N], the protein stability index is 1.71.

Regarding TSAEIELPDVEPAAFLALLEFLYS [R20E], the protein stability index came to 1.77.

As to TSAEIELPDVEPAAFLALLGFLYS [R20G], the protein stability index was 2.67.

TSAEIELPDVEFAAFLALLRFLYS [P12F]: the protein stability index was 1.84.

Consider TSAEIELPDVEEAAFLALLRFLYS [P12E], for which the protein stability index is 2.08.

Regarding TSAEIELPDVEVAAFLALLRFLYS [P12V], the protein stability index is 2.46.

With TSAEIELPDVEDAAFLALLRFLYS [P12D], the protein stability index was found to be 1.47.

As for TSAEIELPDVEGAAFLALLRFLYS [P12G], the protein stability index amounted to 1.85.

TSAEIELPDVEAAAFLALLRFLYS [P12A]: the protein stability index was 1.29.

In the case of TSAEIELPDVGPAAFLALLRFLYS [E11G], the protein stability index was 2.44.

On to TSAEIELPDVRPAAFLALLRFLYS [E11R], for which the protein stability index came out at 2.11.

Consider TSAEIELPDVVPAAFLALLRFLYS [E11V], for which the protein stability index turned out to be 1.52.

On to TSAEIELPDVSPAAFLALLRFLYS [E11S], for which the protein stability index was 1.73.

TSAEIELPDVLPAAFLALLRFLYS [E11L]: the protein stability index was determined as 1.88.

On to TSAEIELPDVNPAAFLALLRFLYS [E11N], for which the protein stability index worked out at 2.15.

With TSAEIELPDVTPAAFLALLRFLYS [E11T], the protein stability index came to 2.4.

On to TSAEIELPDVKPAAFLALLRFLYS [E11K], for which the protein stability index turned out to be 2.75.

As for TLAEIELPDVEPAAFLALLRFLYS [S2L], the protein stability index came to 1.99.

Regarding TPAEIELPDVEPAAFLALLRFLYS [S2P], the protein stability index turned out to be 2.33.

Regarding TEAEIELPDVEPAAFLALLRFLYS [S2E], the protein stability index came to 1.65.

TRAEIELPDVEPAAFLALLRFLYS [S2R]: the protein stability index was determined as 2.09.

With TAAEIELPDVEPAAFLALLRFLYS [S2A], the protein stability index stood at 1.72.
